# According to patent US20240352118A1:
# Assays:
# [1] = target: human TIGIT on cells (human) (UniProt Q495A1); assay: flow cytometry on CHO-huTIGIT cells
# [2] = target: cynomolgus TIGIT on cells (cynomolgus monkey); assay: flow cytometry on CHO-cynoTIGIT cells
# [3] = target: cynomolgus TIGIT-his protein (cynomolgus monkey); assay: BLI (ForteBio), IgG on AHQ sensor, 100 nM TIGIT-his, monovalent, 1:1 model
# [4] = target: human TIGIT-his protein (human) (UniProt Q495A1); assay: as above
# [5] = target: human TIGIT on cells (human) (UniProt Q495A1); assay: flow cytometry, blocking of human CD155-mouse IgG2a Fc (2 ug/mL) binding to CHO-huTIGIT cells
# [6] = target: human TIGIT on cells (human) (UniProt Q495A1); assay: flow cytometry on activated human primary T cells (CD3/CD28 beads + IL-2, 48 h), fluorescent secondary antibody; y axis Positive cells(%), x axis Concentration(nM); EC50 from the table drawn under the curves
# human TIGIT on cells (human), sequence (Q495A1 22-244): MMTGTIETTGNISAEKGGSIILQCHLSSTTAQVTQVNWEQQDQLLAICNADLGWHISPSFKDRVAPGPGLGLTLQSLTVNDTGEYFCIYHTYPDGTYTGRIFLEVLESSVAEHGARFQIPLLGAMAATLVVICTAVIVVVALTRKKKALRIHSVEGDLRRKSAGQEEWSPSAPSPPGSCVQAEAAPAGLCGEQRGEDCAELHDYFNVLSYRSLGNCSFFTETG
# cynomolgus TIGIT-his protein (cynomolgus monkey), sequence (chain, as listed by the source): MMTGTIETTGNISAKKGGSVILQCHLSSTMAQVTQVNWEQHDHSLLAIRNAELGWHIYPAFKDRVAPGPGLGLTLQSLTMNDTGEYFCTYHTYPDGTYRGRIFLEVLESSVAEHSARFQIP
# human TIGIT-his protein (human), sequence (Q495A1 22-141): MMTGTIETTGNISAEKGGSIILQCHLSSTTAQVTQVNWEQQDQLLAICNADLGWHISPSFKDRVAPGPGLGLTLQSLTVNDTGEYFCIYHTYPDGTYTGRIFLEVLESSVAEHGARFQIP
# cynomolgus TIGIT on cells (cynomolgus monkey), sequence (chain, as listed by the source): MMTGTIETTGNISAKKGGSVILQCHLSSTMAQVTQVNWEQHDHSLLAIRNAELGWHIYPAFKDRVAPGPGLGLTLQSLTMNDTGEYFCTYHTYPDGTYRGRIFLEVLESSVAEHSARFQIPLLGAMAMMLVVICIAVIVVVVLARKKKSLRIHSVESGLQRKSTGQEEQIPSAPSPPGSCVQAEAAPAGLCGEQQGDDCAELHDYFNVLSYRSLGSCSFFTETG
substance,measurement,setting,value
Tiragolumab (antibody),EC50,[1],1.35 nM
same,EC50,[2],4.18 nM
same,Kd,[3],3.5 nM
same,Kd,[4],0.87 nM
same,IC50,[5],0.63 nM
same,EC50,[6],0.274 nM
